From PMC7168753 (Science (New York, N.Y.), 2019)

Biological target: CH848 10.17DT stabilized SOSIP gp140 Env trimer (HIV-1)
Assay: SPR

Row | Binder | Kd [nM]
1 | DH270 UCA with the improbable G57R mutation (antibody, V domains shown) VH: not shown VL: QSALTQPASVSGSPGQSITISCTGTSSDVGSYNLVSWYQQHPGKAPKLMIYEVSKRPSGVSNRFSGSKSGNTASLTISGLQAEDEADYYCCSYAGSSTVIFGGGTKLTVL | 132
2 | DH270 UCA (antibody, format not stated in the text) (antibody, V domains shown) VH: not shown VL: QSALTQPASVSGSPGQSITISCTGTSSDVGSYNLVSWYQQHPGKAPKLMIYEVSKRPSGVSNRFSGSKSGNTASLTISGLQAEDEADYYCCSYAGSSTVIFGGGTKLTVL | 558
